# Paper PMC3876041, “Screening of Peptide Ligands for Pyrroloquinoline Quinone Glucose Dehydrogenase Using Antagonistic Template-Based Biopanning” (International Journal of Molecular Sciences, 2013)
# No end group written: not given here.
# T1: DEE-His (His-tagged V453D-Q454E-K455E GDH-B) (Acinetobacter calcoaceticus, UniProt P13650, K455E/Q454E/V453D)
# T1 construct: 6-His (C); made in house
# T1 sequence (P13650 25-478 V453D/Q454E/K455E): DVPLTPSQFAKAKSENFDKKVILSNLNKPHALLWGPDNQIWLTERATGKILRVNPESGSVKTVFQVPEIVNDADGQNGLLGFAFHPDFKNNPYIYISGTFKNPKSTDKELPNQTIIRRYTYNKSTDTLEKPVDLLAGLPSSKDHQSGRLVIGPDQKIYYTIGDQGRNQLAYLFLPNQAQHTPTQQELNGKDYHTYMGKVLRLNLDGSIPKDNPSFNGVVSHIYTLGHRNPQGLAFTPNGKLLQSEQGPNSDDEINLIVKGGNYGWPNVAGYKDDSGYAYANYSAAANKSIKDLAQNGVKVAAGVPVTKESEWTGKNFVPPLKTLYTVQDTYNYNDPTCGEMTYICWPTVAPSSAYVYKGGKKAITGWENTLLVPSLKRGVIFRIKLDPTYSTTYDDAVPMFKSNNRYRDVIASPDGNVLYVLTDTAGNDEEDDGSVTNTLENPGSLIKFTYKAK
# T2: HI (Y367H-N452I GDH-B) (Acinetobacter calcoaceticus, UniProt P13650, N452I/Y367H)
# T2 construct: made in house; host or cells: Escherichia coli PP2418 / pTrc99A
# T2 sequence (P13650 25-478 Y367H/N452I): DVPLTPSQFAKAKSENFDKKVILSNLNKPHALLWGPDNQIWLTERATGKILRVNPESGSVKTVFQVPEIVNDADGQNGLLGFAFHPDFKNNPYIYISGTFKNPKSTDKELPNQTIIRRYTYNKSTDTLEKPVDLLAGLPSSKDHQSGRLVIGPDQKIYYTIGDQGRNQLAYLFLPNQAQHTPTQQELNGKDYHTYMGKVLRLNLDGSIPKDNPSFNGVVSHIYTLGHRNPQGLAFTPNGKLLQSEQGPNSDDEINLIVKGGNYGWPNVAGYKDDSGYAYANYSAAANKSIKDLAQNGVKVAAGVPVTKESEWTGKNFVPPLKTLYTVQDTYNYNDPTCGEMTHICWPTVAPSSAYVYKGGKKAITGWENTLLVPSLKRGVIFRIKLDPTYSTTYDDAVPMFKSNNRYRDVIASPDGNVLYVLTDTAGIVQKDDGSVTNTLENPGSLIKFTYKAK
# T3: wild-type water-soluble pyrroloquinoline quinone (PQQ) glucose dehydrogenase (GDH-B) (UniProt P13650 25-478)
# T3 construct: water-soluble PQQ-dependent glucose dehydrogenase (GDH-B); structural gene in pTrc99A; Produced as apo-form in E. coli; PQQ and Ca2+ are added for activity assays; also called wild-type GDH-B; W.T; source: E. coli PP2418 (pTrc99A), purified as previously described (cation exchange chromatography)
# T3 sequence (looked up): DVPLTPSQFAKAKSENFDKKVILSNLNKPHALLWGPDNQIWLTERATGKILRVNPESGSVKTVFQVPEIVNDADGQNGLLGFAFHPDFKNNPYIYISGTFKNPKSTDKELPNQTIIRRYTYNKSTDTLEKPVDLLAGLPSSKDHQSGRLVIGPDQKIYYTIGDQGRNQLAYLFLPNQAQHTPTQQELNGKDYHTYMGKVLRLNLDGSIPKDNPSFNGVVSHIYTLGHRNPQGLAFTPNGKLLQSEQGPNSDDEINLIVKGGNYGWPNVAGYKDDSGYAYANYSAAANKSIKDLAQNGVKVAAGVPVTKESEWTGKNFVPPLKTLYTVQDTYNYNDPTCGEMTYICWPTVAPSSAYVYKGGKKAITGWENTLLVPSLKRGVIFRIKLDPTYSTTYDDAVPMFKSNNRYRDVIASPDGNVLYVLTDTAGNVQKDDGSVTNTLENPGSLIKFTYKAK
# T4: Y367H-N452I GDH-B (HI) (UniProt P13650 25-478, Y367H | N452I)
# T4 construct: also called antagonistic template; source: E. coli PP2418 (pTrc99A), soluble, purified (Resource S cation exchange, Superdex 200 size exclusion chromatography)
# T4 sequence: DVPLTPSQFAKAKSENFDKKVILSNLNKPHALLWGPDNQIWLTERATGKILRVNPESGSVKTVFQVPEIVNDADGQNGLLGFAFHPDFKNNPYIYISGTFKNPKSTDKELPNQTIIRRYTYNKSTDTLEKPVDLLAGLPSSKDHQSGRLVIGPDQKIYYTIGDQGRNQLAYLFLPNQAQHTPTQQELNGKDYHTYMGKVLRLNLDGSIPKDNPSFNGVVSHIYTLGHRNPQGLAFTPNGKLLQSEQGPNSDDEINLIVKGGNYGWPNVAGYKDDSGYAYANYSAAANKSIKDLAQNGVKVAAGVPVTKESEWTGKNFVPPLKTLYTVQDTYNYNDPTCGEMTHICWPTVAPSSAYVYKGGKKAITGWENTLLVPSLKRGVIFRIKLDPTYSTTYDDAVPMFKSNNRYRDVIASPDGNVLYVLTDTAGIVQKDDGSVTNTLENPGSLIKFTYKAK
# B1: Asn452Thr GDH-B mutant: previously reported Asn452Thr GDH-B mutant, ref [36] (protein, UniProt P13650 25-478, looked up, variant N452T)
# Quinoprotein glucose …: DVPLTPSQFAKAKSENFDKKVILSNLNKPHALLWGPDNQIWLTERATGKILRVNPESGSVKTVFQVPEIVNDADGQNGLLGFAFHPDFKNNPYIYISGTFKNPKSTDKELPNQTIIRRYTYNKSTDTLEKPVDLLAGLPSSKDHQSGRLVIGPDQKIYYTIGDQGRNQLAYLFLPNQAQHTPTQQELNGKDYHTYMGKVLRLNLDGSIPKDNPSFNGVVSHIYTLGHRNPQGLAFTPNGKLLQSEQGPNSDDEINLIVKGGNYGWPNVAGYKDDSGYAYANYSAAANKSIKDLAQNGVKVAAGVPVTKESEWTGKNFVPPLKTLYTVQDTYNYNDPTCGEMTYICWPTVAPSSAYVYKGGKKAITGWENTLLVPSLKRGVIFRIKLDPTYSTTYDDAVPMFKSNNRYRDVIASPDGNVLYVLTDTAGTVQKDDGSVTNTLENPGSLIKFTYKAK
# B2: GDH-B: water-soluble pyrroloquinoline quinone (PQQ) dependent glucose dehydrogenase, wild type (protein)
# chain: DVPLTPSQFAKAKSENFDKKVILSNLNKPHALLWGPDNQIWLTERATGKILRVNPESGSVKTVFQVPEIVNDADGQNGLLGFAFHPDFKNNPYIYISGTFKNPKSTDKELPNQTIIRRYTYNKSTDTLEKPVDLLAGLPSSKDHQSGRLVIGPDQKIYYTIGDQGRNQLAYLFLPNQAQHTPTQQELNGKDYHTYMGKVLRLNLDGSIPKDNPSFNGVVSHIYTLGHRNPQGLAFTPNGKLLQSEQGPNSDDEINLIVKGGNYGWPNVAGYKDDSGYAYANYSAAANKSIKDLAQNGVKVAAGVPVTKESEWTGKNFVPPLKTLYTVQDTYNYNDPTCGEMTYICWPTVAPSSAYVYKGGKKAITGWENTLLVPSLKRGVIFRIKLDPTYSTTYDDAVPMFKSNNRYRDVIASPDGNVLYVLTDTAGNVQKDDGSVTNTLENPGSLIKFTYKAK
# B3: GB-His: GDH-B fused with 6-His tag to the C-terminal (protein)
# chain: DVPLTPSQFAKAKSENFDKKVILSNLNKPHALLWGPDNQIWLTERATGKILRVNPESGSVKTVFQVPEIVNDADGQNGLLGFAFHPDFKNNPYIYISGTFKNPKSTDKELPNQTIIRRYTYNKSTDTLEKPVDLLAGLPSSKDHQSGRLVIGPDQKIYYTIGDQGRNQLAYLFLPNQAQHTPTQQELNGKDYHTYMGKVLRLNLDGSIPKDNPSFNGVVSHIYTLGHRNPQGLAFTPNGKLLQSEQGPNSDDEINLIVKGGNYGWPNVAGYKDDSGYAYANYSAAANKSIKDLAQNGVKVAAGVPVTKESEWTGKNFVPPLKTLYTVQDTYNYNDPTCGEMTYICWPTVAPSSAYVYKGGKKAITGWENTLLVPSLKRGVIFRIKLDPTYSTTYDDAVPMFKSNNRYRDVIASPDGNVLYVLTDTAGNVQKDDGSVTNTLENPGSLIKFTYKAK
# modifications: left off: His6, C-terminal, kept
# notes: GDH-B fused with 6-His tag to the C-terminal
# B4: HI: GDH-B mutant Y367H-N452I, antagonistic template (protein)
# chain: DVPLTPSQFAKAKSENFDKKVILSNLNKPHALLWGPDNQIWLTERATGKILRVNPESGSVKTVFQVPEIVNDADGQNGLLGFAFHPDFKNNPYIYISGTFKNPKSTDKELPNQTIIRRYTYNKSTDTLEKPVDLLAGLPSSKDHQSGRLVIGPDQKIYYTIGDQGRNQLAYLFLPNQAQHTPTQQELNGKDYHTYMGKVLRLNLDGSIPKDNPSFNGVVSHIYTLGHRNPQGLAFTPNGKLLQSEQGPNSDDEINLIVKGGNYGWPNVAGYKDDSGYAYANYSAAANKSIKDLAQNGVKVAAGVPVTKESEWTGKNFVPPLKTLYTVQDTYNYNDPTCGEMTHICWPTVAPSSAYVYKGGKKAITGWENTLLVPSLKRGVIFRIKLDPTYSTTYDDAVPMFKSNNRYRDVIASPDGNVLYVLTDTAGIVQKDDGSVTNTLENPGSLIKFTYKAK
# B5: DEE4–5 synthesized 12-mer peptide (peptide)
# peptide: LGDSSNSQVSLN
# notes: 12-mer selected from the Ph.D.-12 phage display peptide library; Immobilised on a CM5 chip by amine coupling in the SPR; also called DEE3-4; source: synthetic peptide, bought: Sigma Aldrich Japan
# B6: DEE4–10 synthesized 12-mer peptide (peptide)
# peptide: NSTHHHHFATIW
# notes: 12-mer selected from the Ph.D.-12 phage display peptide library; Immobilised on a CM5 chip by amine coupling in the SPR; also called HI4–6; source: synthetic peptide, bought: Sigma Aldrich Japan
# B7: HI3-2 synthesized 12-mer peptide (peptide)
# peptide: ELITNSETTQWF
# notes: 12-mer selected from the Ph.D.-12 phage display peptide library; Immobilised on a CM5 chip by amine coupling in the SPR; source: synthetic peptide, bought: Sigma Aldrich Japan
# B8: DEE4–6 synthesized 12-mer peptide (peptide)
# peptide: SDLSPIQSLSAI
# notes: 12-mer selected from the Ph.D.-12 phage display peptide library; Immobilised on a CM5 chip by amine coupling in the SPR; also called DEE4–9; source: synthetic peptide, bought: Sigma Aldrich Japan
# Columns and labels:
# [1] = biological target: T1, DEE-His (His-tagged V453D-Q454E-K455E GDH-B); test: SPR (BIAcore X) binding of immobilized synthesized peptides, DEE-His as analyte; details: peptide on CM5 chip (amine coupling), analyte 5 nM to 90 μM in 10 mM MOPS–NaOH pH 7.0, less than 20 RU at any analyte concentration = not binding, read-out: Kd against DEE-His
# From the text: (§1) The purity was greater than 95%.
# [2] = biological target: T2, HI (Y367H-N452I GDH-B); test: SPR (BIAcore X) binding of immobilized synthesized peptides, HI as analyte; details: peptide on CM5 chip (amine coupling), analyte 5 nM to 90 μM in 10 mM MOPS–NaOH pH 7.0, less than 20 RU at any analyte concentration = not binding, read-out: Kd against HI
# From the text: as §1
# [3] = decrease vs wild-type GDH-B, ref [36]; cited from earlier work
# From the text: We, and other research groups, have been engaged in constructing of variety of mutant GDH-Bs in order to develop an ideal enzyme for glucose monitoring. For example, we have reported the Asn452Thr GDH-B mutant, showing approximately 50% lower activity for lactose and maltose than the wild-type GDH-B [36].
# [4] = Kinetic parameters of GDH-B and mutant enzymes; assay type: biochemical
# Description: GDH-B activity was measured using 0.06 mM 2,6-dichlorophenolindophenol (DCIP) and 0.6 mM phenazine methosulfate (PMS) following 30 min pre-incubation in 10 mM MOPS–NaOH buffer (pH 7.0) containing 1 μM PQQ and 1 mM CaCl2 at room temperature (25 °C). The enzyme activity was determined by measuring the decrease in absorbance of DCIP at 600 nm. For the inhibition assay, the residual activity of 0.7 nM GDH-B for 50 mM D-glucose was measured following 1 h incubation with various concentrations of each peptide. GDH-B activity in the absence of peptide was defined as 100%.
# [5] = biological target: T3, wild-type water-soluble …; test: SPR; BIAcore X; peptide immobilised on CM5 chip by amine coupling (320-2130 RU); analytes GDH-B, DEE-His or HI, five concentrations (5 nM to 90 uM) in 10 mM MOPS-NaOH pH 7.0, 10 uL/min to plateau; Kd from plateau RU against concentration (Scatchard); less than 20 RU at any concentration judged as not binding; details: both partners purified
# [6] = biological target: T3, wild-type water-soluble …; test: enzyme inhibition assay; residual activity of 0.7 nM GDH-B for 50 mM D-glucose after 1 h incubation with various concentrations of peptide; DCIP/PMS, 10 mM MOPS-NaOH pH 7.0, PQQ, CaCl2; non-competitive dominant mixed inhibition; details: both partners purified
# [7] = biological target: T4, Y367H-N452I GDH-B (HI); test: SPR; details: both partners purified
# [8] = DCIP/PMS assay, 10 mM MOPS–NaOH pH 7.0, 1 μM PQQ, 1 mM CaCl2, 25 °C
molecule,measurement,setting,value
ELITNSETTQWF [HI3-2],Kd,[1],> 90 µM
LGDSSNSQVSLN [DEE4–5],Kd,[1],> 90 µM
same,Kd,[2],> 90 µM
NSTHHHHFATIW [DEE4–10],Kd,[1],> 90 µM
same,Kd,[2],> 90 µM
SDLSPIQSLSAI [DEE4–6],Kd,[1],> 90 µM
B1,lower activity for lactose than the wild-type,[3],approximately 50%
same,lower activity for maltose than the wild-type,[3],approximately 50%
B2,Km,[4]; [8],25 mM
same,Vmax,[4]; [8],5200 U/mg protein
B3,Km,[4]; pH 7,24 mM
same,Vmax,[4]; pH 7,3950 U/mg protein
B4,Km,[4]; [8],18 mM
same,Vmax,[4]; [8],170 U/mg protein
B5,Kd,[5],13000 nM
B6,Kd,[5],700 nM
same,Ki,[6],7.4 µM
B7,Kd,[5],2500 nM
same,Kd,[7],88 µM
B8,Kd,[5],2500 nM
same,Kd,[7],230 µM
